Measurements published in patent US20100098709A1 (AstraZeneca / MedImmune, published 2010).

Legend:
[1] = target: T1, Complex 1: HIS FLAG IL-6/sIL-6R (human, UniProt P05231 30-212; P08887 20-358, limits assumed); experiment: phage ELISA, antigen on anti-FLAG plate
T1 construct: Non-covalent complex made by pre-incubating the two proteins; The untagged sIL-6R was bought; also called IL-6/sIL-6R complex consisting of FLAG tagged ligand and untagged receptor

[2] = target: T2, FLAG HIS tagged soluble IL-6Ra (human, UniProt P08887 20-358, limits assumed); experiment: phage ELISA, antigen on anti-FLAG plate
T2 construct: the key was followed; also called HIS FLAG sIL-6R; FLAG-sIL-6R
T2 sequence: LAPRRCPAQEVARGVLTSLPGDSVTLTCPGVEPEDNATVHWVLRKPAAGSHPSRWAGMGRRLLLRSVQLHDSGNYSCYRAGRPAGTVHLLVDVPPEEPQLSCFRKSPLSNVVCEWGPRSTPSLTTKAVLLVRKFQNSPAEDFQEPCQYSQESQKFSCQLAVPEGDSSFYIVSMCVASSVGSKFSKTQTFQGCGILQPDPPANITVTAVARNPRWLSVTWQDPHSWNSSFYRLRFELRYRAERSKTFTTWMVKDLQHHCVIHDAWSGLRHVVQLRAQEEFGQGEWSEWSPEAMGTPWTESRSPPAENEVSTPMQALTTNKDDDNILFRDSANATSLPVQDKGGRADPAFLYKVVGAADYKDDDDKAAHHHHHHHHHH

[3] = target: T3, Complex 2: IL-6/HIS FLAG sIL-6R (human, UniProt P05231 30-212; P08887 20-358, limits assumed); experiment: phage ELISA, antigen on anti-FLAG plate
T3 construct: Non-covalent complex made by pre-incubating the two proteins; Untagged IL-6 was bought; also called IL-6/sIL-6R complex consisting of untagged ligand and FLAG tagged receptor

[4] = target: T4, FLAG HIS tagged Hyper IL-6; experiment: phage ELISA, antigen on anti-FLAG plate
T4 construct: also called HIS FLAG Hyper IL-6

[5] = target: T5, HIS FLAG tagged human IL-6 (human, UniProt P05231 30-212); experiment: phage ELISA, antigen on anti-FLAG plate
T5 construct: also called HIS FLAG IL-6; FLAG-IL-6

[6] = target: T2, FLAG HIS tagged soluble IL-6Ra; experiment: phage ELISA
[7] = target: T5, HIS FLAG tagged human IL-6; experiment: phage ELISA
[8] = target: T6, biotinylated anti-FLAG monoclonal antibody (Sigma F9291); experiment: phage ELISA, anti-FLAG treated plate alone
T6 construct: Control coat of the phage ELISA plates (streptavidin plate treated with the anti-FLAG antibody, then MPBS only); also called anti FLAG antibody treated plates alone

Absorbance (450 nM) [2]: 0.061 | Absorbance (450 nM) [3]: 0.747 | Absorbance (450 nM) [4]: 0.833 | Absorbance (450 nM) [5]: 0.065 | binding result [6]: no binding | binding result [7]: no binding | Absorbance (450 nM) [8]: 0.062
B1: Antibody 5 scFv (scFv, V domains shown)
VH: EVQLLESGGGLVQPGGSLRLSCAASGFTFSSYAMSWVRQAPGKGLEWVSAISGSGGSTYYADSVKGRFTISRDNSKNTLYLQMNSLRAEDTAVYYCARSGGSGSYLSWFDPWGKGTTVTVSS
VL: QSVLTQPPSVSGAPGQRVTISCTGSSSNIGAGYDVHWYQQLPGTAPKLLIYGNSNRPSGVPDRFSGSKSGTSASLAITGLQAEDEADYYCQSYDSSLSGWVFGGGTKVTVLG
notes: also called Ab 5
Absorbance (450 nM) [1]: 0.331
